Assay [1] concerns the target T1, full length L-terminase of bacteriophage P22, purified alone for the pull-down (bacteriophage P22, UniProt P26745 1-499).
T1 sequence (looked up): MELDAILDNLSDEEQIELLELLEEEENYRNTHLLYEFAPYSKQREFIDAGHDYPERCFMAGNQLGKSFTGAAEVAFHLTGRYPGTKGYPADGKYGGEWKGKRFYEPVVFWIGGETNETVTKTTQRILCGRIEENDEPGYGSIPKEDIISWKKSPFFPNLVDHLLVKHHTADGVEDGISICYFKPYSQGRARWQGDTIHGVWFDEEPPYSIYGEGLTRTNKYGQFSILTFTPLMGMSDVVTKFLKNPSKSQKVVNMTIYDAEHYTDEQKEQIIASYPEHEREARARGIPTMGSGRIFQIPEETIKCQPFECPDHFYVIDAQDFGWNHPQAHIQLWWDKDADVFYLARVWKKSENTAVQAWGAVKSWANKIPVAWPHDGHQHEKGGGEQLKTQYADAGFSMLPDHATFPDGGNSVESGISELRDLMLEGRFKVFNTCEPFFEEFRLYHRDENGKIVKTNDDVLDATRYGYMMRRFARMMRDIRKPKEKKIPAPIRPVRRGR
The experiment in a line: pull-down.

Assay [2] concerns the target T2, L-terminase ATPase domain of bacteriophage P22 (residues 1-287) (bacteriophage P22, UniProt P26745 1-287).
T2 sequence (looked up): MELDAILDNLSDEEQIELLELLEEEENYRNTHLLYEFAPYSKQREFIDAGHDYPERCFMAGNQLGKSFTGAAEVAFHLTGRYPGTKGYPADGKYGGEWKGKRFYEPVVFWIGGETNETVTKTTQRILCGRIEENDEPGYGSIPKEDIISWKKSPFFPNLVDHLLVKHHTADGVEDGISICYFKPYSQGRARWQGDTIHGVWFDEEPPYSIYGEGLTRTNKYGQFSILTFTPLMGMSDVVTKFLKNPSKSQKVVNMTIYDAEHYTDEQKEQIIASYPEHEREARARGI
The experiment in a line: pull-down.

For assay [3], the target named is T3, MBP-tagged L-terminase Binding Domain of P22 S-terminase (residues 140-162) (bacteriophage P22, UniProt P04893 140-162).
T3 chain (looked up): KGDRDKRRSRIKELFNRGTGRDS
The assay can be described thus: AUC.

In assay [4] the target is T4, S-terminase (small terminase subunit) of bacteriophage P22, full length, MBP cleaved off (bacteriophage P22, UniProt P04893 1-162).
T4 sequence (looked up): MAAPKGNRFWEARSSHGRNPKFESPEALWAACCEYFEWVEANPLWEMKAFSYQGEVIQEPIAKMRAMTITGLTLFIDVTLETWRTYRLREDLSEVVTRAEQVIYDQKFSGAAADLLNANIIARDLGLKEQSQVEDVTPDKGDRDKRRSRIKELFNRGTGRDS
The assay can be described thus: native MS.

Several values for one entry are separate records, joined by “and”; a condition that tells them apart may be missing. Equal values may be shown once.

KGDRDKRRSRIKELFNRGTGRDS (domain or fragment, bacteriophage P22, UniProt P04893 140-162, looked up) [GST-tagged L-terminase Binding Domain of P22 S-terminase (residues 140-162)]: the binding result in assay [1] and in assay [2] was “binds” in each case.

B1: L-terminase (large terminase subunit) of bacteriophage P22, full length, co-expressed (enzyme, UniProt P26745 1-499, looked up)
chain: T1 sequence (looked up)
Regarding B1, the “stoichiometry N” value in assay [3] is 1 L-terminase per MBP-LBD; in assay [4] it was 1 L-terminase per S-terminase nonamer and 2 L-terminase per S-terminase nonamer and 3 L-terminase per S-terminase nonamer.

One may read the stoichiometry N as the number of molecules, sites or subunits per partner or assembly.

For the origin of these results see publication PMC4587339 (Journal of molecular biology, 2015).
